# T1: TNFR1 (Homo sapiens, UniProt P19438)
# T1 chain: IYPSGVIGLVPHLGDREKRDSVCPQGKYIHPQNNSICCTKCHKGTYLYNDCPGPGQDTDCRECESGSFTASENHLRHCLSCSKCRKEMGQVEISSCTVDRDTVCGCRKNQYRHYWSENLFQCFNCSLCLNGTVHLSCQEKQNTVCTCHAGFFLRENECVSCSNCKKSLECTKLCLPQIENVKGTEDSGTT
# Biological target: T1, TNFR1
# Test: yeast display SC50
row,Binder,apparent Kd (screen)
1,L27C (designed binder) MTLQELLREEALRRAEAEAFRYALELCAEKFPEQKEYLLDLAEEIESQIRSLSGVDVEDVRKFLDKEWAWVKELLAEHPAELAEVEAARAARLAELRAEVEAKVAA,0.539 nM
2,L93V (designed binder) MTLQELLREEALRRAEAEAFRYALELLAEKFPEQKEYLLDLAEEIESQIRSLSGVDVEDVRKFLDKEWAWVKELLAEHPAELAEVEAARAARVAELRAEVEAKVAA,0.869 nM
3,E95G (designed binder) MTLQELLREEALRRAEAEAFRYALELLAEKFPEQKEYLLDLAEEIESQIRSLSGVDVEDVRKFLDKEWAWVKELLAEHPAELAEVEAARAARLAGLRAEVEAKVAA,0.653 nM
4,D40V (designed binder) MTLQELLREEALRRAEAEAFRYALELLAEKFPEQKEYLLVLAEEIESQIRSLSGVDVEDVRKFLDKEWAWVKELLAEHPAELAEVEAARAARLAELRAEVEAKVAA,5.31 nM
5,A23H (designed binder) MTLQELLREEALRRAEAEAFRYHLELLAEKFPEQKEYLLDLAEEIESQIRSLSGVDVEDVRKFLDKEWAWVKELLAEHPAELAEVEAARAARLAELRAEVEAKVAA,1.27 nM
6,A91R (designed binder) MTLQELLREEALRRAEAEAFRYALELLAEKFPEQKEYLLDLAEEIESQIRSLSGVDVEDVRKFLDKEWAWVKELLAEHPAELAEVEAARARRLAELRAEVEAKVAA,0.446 nM
7,R8W (designed binder) MTLQELLWEEALRRAEAEAFRYALELLAEKFPEQKEYLLDLAEEIESQIRSLSGVDVEDVRKFLDKEWAWVKELLAEHPAELAEVEAARAARLAELRAEVEAKVAA,0.539 nM
8,I45Q (designed binder) MTLQELLREEALRRAEAEAFRYALELLAEKFPEQKEYLLDLAEEQESQIRSLSGVDVEDVRKFLDKEWAWVKELLAEHPAELAEVEAARAARLAELRAEVEAKVAA,15.2 nM
9,L39K (designed binder) MTLQELLREEALRRAEAEAFRYALELLAEKFPEQKEYLKDLAEEIESQIRSLSGVDVEDVRKFLDKEWAWVKELLAEHPAELAEVEAARAARLAELRAEVEAKVAA,1.16 nM
10,E29V (designed binder) MTLQELLREEALRRAEAEAFRYALELLAVKFPEQKEYLLDLAEEIESQIRSLSGVDVEDVRKFLDKEWAWVKELLAEHPAELAEVEAARAARLAELRAEVEAKVAA,0.539 nM
11,A15T (designed binder) MTLQELLREEALRRTEAEAFRYALELLAEKFPEQKEYLLDLAEEIESQIRSLSGVDVEDVRKFLDKEWAWVKELLAEHPAELAEVEAARAARLAELRAEVEAKVAA,0.49 nM
12,I49S (designed binder) MTLQELLREEALRRAEAEAFRYALELLAEKFPEQKEYLLDLAEEIESQSRSLSGVDVEDVRKFLDKEWAWVKELLAEHPAELAEVEAARAARLAELRAEVEAKVAA,0.539 nM
13,L75C (designed binder) MTLQELLREEALRRAEAEAFRYALELLAEKFPEQKEYLLDLAEEIESQIRSLSGVDVEDVRKFLDKEWAWVKELCAEHPAELAEVEAARAARLAELRAEVEAKVAA,0.653 nM
14,E81S (designed binder) MTLQELLREEALRRAEAEAFRYALELLAEKFPEQKEYLLDLAEEIESQIRSLSGVDVEDVRKFLDKEWAWVKELLAEHPASLAEVEAARAARLAELRAEVEAKVAA,0.49 nM
15,E18P (designed binder) MTLQELLREEALRRAEAPAFRYALELLAEKFPEQKEYLLDLAEEIESQIRSLSGVDVEDVRKFLDKEWAWVKELLAEHPAELAEVEAARAARLAELRAEVEAKVAA,1.05 nM
16,V100R (designed binder) MTLQELLREEALRRAEAEAFRYALELLAEKFPEQKEYLLDLAEEIESQIRSLSGVDVEDVRKFLDKEWAWVKELLAEHPAELAEVEAARAARLAELRAEREAKVAA,0.718 nM
17,D59S (designed binder) MTLQELLREEALRRAEAEAFRYALELLAEKFPEQKEYLLDLAEEIESQIRSLSGVDVESVRKFLDKEWAWVKELLAEHPAELAEVEAARAARLAELRAEVEAKVAA,0.539 nM
18,A42L (designed binder) MTLQELLREEALRRAEAEAFRYALELLAEKFPEQKEYLLDLLEEIESQIRSLSGVDVEDVRKFLDKEWAWVKELLAEHPAELAEVEAARAARLAELRAEVEAKVAA,2.05 nM
19,A98P (designed binder) MTLQELLREEALRRAEAEAFRYALELLAEKFPEQKEYLLDLAEEIESQIRSLSGVDVEDVRKFLDKEWAWVKELLAEHPAELAEVEAARAARLAELRPEVEAKVAA,0.539 nM
20,L12F (designed binder) MTLQELLREEAFRRAEAEAFRYALELLAEKFPEQKEYLLDLAEEIESQIRSLSGVDVEDVRKFLDKEWAWVKELLAEHPAELAEVEAARAARLAELRAEVEAKVAA,0.593 nM
21,S51N (designed binder) MTLQELLREEALRRAEAEAFRYALELLAEKFPEQKEYLLDLAEEIESQIRNLSGVDVEDVRKFLDKEWAWVKELLAEHPAELAEVEAARAARLAELRAEVEAKVAA,1.69 nM
22,L6S (designed binder) MTLQESLREEALRRAEAEAFRYALELLAEKFPEQKEYLLDLAEEIESQIRSLSGVDVEDVRKFLDKEWAWVKELLAEHPAELAEVEAARAARLAELRAEVEAKVAA,4.83 nM
23,E95W (designed binder) MTLQELLREEALRRAEAEAFRYALELLAEKFPEQKEYLLDLAEEIESQIRSLSGVDVEDVRKFLDKEWAWVKELLAEHPAELAEVEAARAARLAWLRAEVEAKVAA,0.446 nM
24,E58H (designed binder) MTLQELLREEALRRAEAEAFRYALELLAEKFPEQKEYLLDLAEEIESQIRSLSGVDVHDVRKFLDKEWAWVKELLAEHPAELAEVEAARAARLAELRAEVEAKVAA,0.593 nM
25,D65S (designed binder) MTLQELLREEALRRAEAEAFRYALELLAEKFPEQKEYLLDLAEEIESQIRSLSGVDVEDVRKFLSKEWAWVKELLAEHPAELAEVEAARAARLAELRAEVEAKVAA,0.79 nM
26,A28I (designed binder) MTLQELLREEALRRAEAEAFRYALELLIEKFPEQKEYLLDLAEEIESQIRSLSGVDVEDVRKFLDKEWAWVKELLAEHPAELAEVEAARAARLAELRAEVEAKVAA,7.78 nM
